Experimental data taken from article PMC3624988 (Developmental cell, 2013).

Molecular target: Flag:Jub (full length Ajuba LIM protein Jub, 1-729aa) (Drosophila, UniProt Q9VY77 1-728)
Test: co-IP

Sequence of Flag:Jub (full length Ajuba LIM protein Jub, 1-729aa) (Q9VY77 whole entry): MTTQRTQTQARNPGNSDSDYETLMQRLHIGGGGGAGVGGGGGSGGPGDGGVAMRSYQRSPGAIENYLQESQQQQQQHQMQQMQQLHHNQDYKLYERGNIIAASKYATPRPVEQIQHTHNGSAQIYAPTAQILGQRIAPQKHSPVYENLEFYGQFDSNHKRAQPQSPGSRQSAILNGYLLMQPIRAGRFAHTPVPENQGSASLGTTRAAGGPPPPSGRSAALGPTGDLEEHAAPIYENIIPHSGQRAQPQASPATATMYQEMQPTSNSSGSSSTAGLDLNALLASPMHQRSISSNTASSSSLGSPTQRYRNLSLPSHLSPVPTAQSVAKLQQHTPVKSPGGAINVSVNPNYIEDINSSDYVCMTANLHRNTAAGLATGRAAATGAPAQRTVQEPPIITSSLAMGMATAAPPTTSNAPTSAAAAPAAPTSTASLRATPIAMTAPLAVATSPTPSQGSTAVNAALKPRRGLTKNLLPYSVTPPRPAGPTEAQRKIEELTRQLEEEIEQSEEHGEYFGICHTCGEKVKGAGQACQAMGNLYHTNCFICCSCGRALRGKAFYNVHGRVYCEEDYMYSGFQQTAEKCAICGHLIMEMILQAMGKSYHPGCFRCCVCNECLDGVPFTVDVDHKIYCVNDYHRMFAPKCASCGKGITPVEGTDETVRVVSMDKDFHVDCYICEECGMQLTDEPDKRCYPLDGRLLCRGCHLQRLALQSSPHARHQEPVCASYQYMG

fold change of binding with Ras-MAPK activation against without [fold]	Binder
2	Myc:Wts (Myc-tagged Warts) (enzyme, Drosophila, UniProt Q9VA38 1-1105, looked up) MHPAGEKRGGRPNDKYTAEALESIKQDLTRFEVQNNHRNNQNYTPLRYTATNGRNDALTPDYHHAKQPMEPPPSASPAPDVVIPPPPAIVGQPGAGSISVSGVGVGVVGVANGRVPKMMTALMPNKLIRKPSIERDTASSHYLRCSPALDSGAGSSRSDSPHSHHTHQPSSRTVGNPGGNGGFSPSPSGFSEVAPPAPPPRNPTACSAATPPPPVPPTSQAYVKRRSPALNNRPPAIAPPTQRGNSPVITQNGLKNPQQQLTQQLKSLNLYPGGGSGAVVEPPPPYLIQGGAGGAAPPPPPPSYTASMQSRQSPTQSQQSDYRKSPSSGIYSATSAGSPSPITVSLPPAPLAKPQPRVYQARSQQPIIMQSVKSTQVQKPVLQTAVAPQSPSSASASNSPVHVLAAPPSYPQKSAAVVQQQQQAAAAAHQQQHQHQQSKPPTPTTPPLVGLNSKPNCLEPPSYAKSMQAKAATVVQQQQQQQQQQQQVQQQQVQQQQQQQQQQLQALRVLQAQAQRERDQRERDQRERERDQQKLANGNPGRQMLPPPPYQSNNNNNSEIKPPSCNNNNIQISNSNLATTPPIPPAKYNNNSSNTGANSSGGSNGSTGTTASSSTSCKKIKHASPIPERKKISKEKEEERKEFRIRQYSPQAFKFFMEQHIENVIKSYRQRTYRKNQLEKEMHKVGLPDQTQIEMRKMLNQKESNYIRLKRAKMDKSMFVKLKPIGVGAFGEVTLVSKIDTSNHLYAMKTLRKADVLKRNQVAHVKAERDILAEADNNWVVKLYYSFQDKDNLYFVMDYIPGGDLMSLLIKLGIFEEELARFYIAEVTCAVDSVHKMGFIHRDIKPDNILIDRDGHIKLTDFGLCTGFRWTHNSKYYQENGNHSRQDSMEPWEEYSENGPKPTVLERRRMRDHQRVLAHSLVGTPNYIAPEVLERSGYTQLCDYWSVGVILYEMLVGQPPFLANSPLETQQKVINWEKTLHIPPQAELSREATDLIRRLCASADKRLGKSVDEVKSHDFFKGIDFADMRKQKAPYIPEIKHPTDTSNFDPVDPEKLRSNDSTMSSGDDVDQNDRTFHGFFEFTFRRFFDDKQPPDMTDDQAPVYV
3	Sav:V5 (V5-tagged Salvador) (natural protein, Drosophila, UniProt Q9VCR6 1-608, looked up) MNYLTILLCNRKPTMLSRRNKEKSQHKEGVVGKYMKKDTPPDISVINVWSDQRAKKKSLQRCASTSPSCEFHPRSSSTSRNTYSCTDSQPDYYHARRAQSQMPLQQHSHSHPHSLPHPSHPHVRSHPPLPPHQFRASSNQLSQNSSNYVNFEQIERMRRQQSSPLLQTTSSPAPGAGGFQRSYSTTQRQHHPHLGGDSYDADQGLLSASYANMLQLPQRPHSPAHYAVPPQQQQHPQIHQQHASTPFGSTLRFDRAAMSIRERQPRYQPTSSPMQQQQQQQQQQQQQLQHTQLAAHLGGSYSSDSYPIYENPSRVISMRATQSQRSESPIYSNTTASSATLAVVPQHHHQGHLAVPSGSGGGSLSGSGRGGSSGSVRGASTSVQSLYVPPRTPPSAVAGAGGSANGSLQKVPSQQSLTEPEELPLPPGWATQYTLHGRKYYIDHNAHTTHWNHPLEREGLPVGWRRVVSKMHGTYYENQYTGQSQRQHPCLTSYYVYTTSAEPPKAIRPEASLYAPPTHTHNALVPANPYLLEEIPKWLAVYSEADSSKDHLLQFNMFSLPELEGFDSMLVRLFKQELGTIVGFYERYRRALILEKNRRAGQNQNQNQ
